Columns and labels:
Bovine RNase B (bovine) = Bovine RNase B (bovine) (UniProt P61823)
[1] = molecular target: GlcNAc-RNase B (67) (bovine) (UniProt P61823)
GlcNAc-RNase B (67) (bovine), sequence (P61823 27-150): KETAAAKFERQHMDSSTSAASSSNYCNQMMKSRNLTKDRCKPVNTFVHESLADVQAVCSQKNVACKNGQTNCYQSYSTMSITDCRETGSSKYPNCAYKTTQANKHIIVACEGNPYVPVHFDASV

Bovine RNase B (bovine), sequence (P61823 27-150): as above

B1: Wild-type Endo-A (enzyme)
chain: STYNGPLSSHWFPEELAQWEPDSDPDAPFNRSHVPLEPGRVANRVNANADKDAHLVSLSALNRHTSGVPSQGAPVFYENTFSYWHYTDLMVYWAGSAGEGIIVPPSADVIDASHRNGVPILGNVFFPPTVYGGQLEWLEQMLEQEEDGSFPLADKLLEVADYYGFDGWFINQETEGADEGTAEAMQAFLVYLQEQKPEGMHIMWYDSMIDTGAIAWQNHLTDRNKMYLQNGSTRVADSMFLNFWWRDQRQSNELAQALGRSPYDLYAGVDVEARGTSTPVQWEGLFPEGEKAHTSLGLYRPDWAFQSSETMEAFYEKELQFWVGSTGNPAETDGQSNWPGMAHWFPAKSTATSVPFVTHFNTGSGAQFSAEGKTVSEQEWNNRSLQDVLPTWRWIQHGGDLEATFSWEEAFEGGSSLQWHGSLAEGEHAQIELYQTELPISEGTSLTWTFKSEHGNDLNVGFRLDGEEDFRYVEGEQRESINGWTQWTLPLDAFAGQTITGLAFAAEGNETGLAEFYIGQLAVGADSEKPAAPNVNVRQYDPDPSGIQLVWEKQSNVHHYRVYKETKHGKELIGTSAGDRIYLEGLVEESKQNDVRLHIEALSETFVPSDARMIDIKSGSF
deglycosylation of RNase B, isolated yield of GlcNAc-RNase B 67 (Bovine RNase B (bovine)): 86%
transglycosylation of oxazoline 8 to GlcNAc-RNase B, yield of glycoprotein 68 [1]: 71%

From patent US20240218342A1, “SITE-SPECIFIC GLYCAN REMODELING OF LYSOSOMAL ENZYMES AND APPLICATIONS THEREOF” (priority 2021, published 2024)
